Experimental findings from patent US20220135977 are described below.

One series addresses Influenza A/H3N2 virus strain Ark1819002 (clade 3C.2a; virus protein quantified as hemagglutinin) (Influenza A virus (H3N2)) (UniProt P03437+P03437). In words: filter.
Details: not given
“GGAGCUCAGCCUUCACUGCCAAAGUGCGAGGCAGUGUGGUGCUGUCCUACGAGUUCUAAAGUUCGUUAGGAAGGCAGCUCAACAUGUUUAACAGGCACCACCGUCGGAUCC [D12]” showed a binding signal of 0.1 amol bound.

Regarding “GGGAGAAUUCCGACCAGAAGGAACAUUUGUGGGUGGUGUGGGUGGCUGUUCCUUUCCUCUCUCCUUCCUCUUCU [P30-10-h1-9]”, the binding signal stood at 832 amol bound.

For the sequence “GGGAGAAUUCCGACCAGAAGGCGCGAUUGUGGUUGUGGUGGGUGGGCGCGCCUUUCCUCUCUCCUUCCUCUUCU [P30-10-h1-2]”, the binding signal amounted to 166 amol bound.

For the sequence “GGGAGAAUUCCGACCAGAAGGCGCGAUUGUGUUGUGGUGGGUGGGCGCGCCUUUCCUCUCUCCUUCCUCUUCU [P30-10-h1-8]”, the binding signal is 2.87 amol bound.

Turning to “GGGAGAAUUCCGACCAGAAGGCUAUGGGUUGAGUUCUGUAUGGGUGGGUGCCUUUCCUCUCUCCUUCCUCUUCU [P30-10-h1-4]”, the binding signal amounted to 232 amol bound.

“GGGAGAAUUCCGACCAGAAGGGUCGGUGUAUAAUUGUAGUUUUGUUGUUGUUGUUGUUGUUGCCUUUCCUCUCUCCUUCCUCUUCU [P30-10-h1-10]” registered a binding signal of 60.7 amol bound.

As for “GGGAGAAUUCCGACCAGAAGUAGUAGCCCGGGUGUGGGUUUAUGGCCGCCCCUUUCCUCUCUCCUUCCUCUUCU [P30-10-h1-6]”, the binding signal worked out at 34.2 amol bound.

In the case of “GGGAGAAUUCCGACCAGAAGUAGUAGCCCGGGUGUGGGUUUAUGGUCGCCCCUUUCCUCUCUCCUUCCUCUUCU [P30-10-h1-1]”, the binding signal was found to be 47.9 amol bound.

“GGGAGAAUUCCGACCAGAAGUAGUAGCCCGGGUGUGGGUUUAUGGUCGUCCCUUUCCUCUCUCCUUCCUCUUCU [P30-10-h1-7]” gave a binding signal of 17 amol bound.

“GGGAGAAUUCCGACCAGAAGUCCCCUCCCUCGUAUCGUAUGUGCGUUUGCCCUUUCCUCUCUCCUUCCUCUUCU [P30-10-h1-5]”: the binding signal came out at 80.3 amol bound.

Sequence “GGGAGAAUUCCGACCAGAAGUGUCGAUGUGUAUCUUAUUUGUUUGUUUGUUUGUUUGUUUGUCCUUUCCUCUCUCCUUCCUCUUCU [P30-10-h1-3]” yielded a binding signal of 37.3 amol bound.

Staying with this series, now noted: 2'-F pyrimidines.
In turn, “GGAGCUCAGCCUUCACUGCCAAAAAGUUAGGCCAGCAAAUUGCGAGCUGAUCCGGUGACUGGCUACAGGAGGCCUUGUCCACGGCCGUAUUGGCACCACCGUCGGAUCC [D26(2'-F)]” gave a binding signal of 32.8 amol bound.
